Biological target: T1, S100A9, P06702
T1 chain: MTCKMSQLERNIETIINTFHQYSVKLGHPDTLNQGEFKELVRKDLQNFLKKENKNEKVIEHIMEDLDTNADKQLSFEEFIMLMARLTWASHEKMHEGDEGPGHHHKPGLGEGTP
Experiment: SDS-PAGE
Details: remark: other sources report otherwise

B1: S100A9, P06702 1-114 (natural protein)
chain: T1 chain
stoichiometry N: 2

Source: doi:10.1101/2024.02.06.579161
